Assays:
HLA-B*46:01 [1] = test: IEDB peptide-MHC binding, purified MHC/competitive/fluorescence; filed as Kd, often an IC50 or EC50 that approximates it; ≥ and ≤ were set here for values at or beyond the usual limits of such assays; conditions: source organism: Zaire ebolavirus
HLA-B*57:01 [2] = test: as above; conditions: source organism: Zaire ebolavirus
HLA-B*27:03 = test: as above; conditions: source organism: Zaire ebolavirus
HLA-B*51:01 [3] = test: as above; conditions: source organism: Zaire ebolavirus
HLA-A*25:01 = test: as above; conditions: source organism: Zaire ebolavirus
HLA-B*18:01 [4] = test: as above; conditions: source organism: Zaire ebolavirus
HLA-B*15:01 [5] = test: as above; conditions: source organism: Zaire ebolavirus
HLA-A*26:01 [6] = test: as above; conditions: source organism: Zaire ebolavirus
HLA-A*69:01 [7] = test: as above; conditions: source organism: Zaire ebolavirus
HLA-A*80:01 = test: as above; conditions: source organism: Zaire ebolavirus
HLA-B*39:01 = test: as above
HLA-A*02:01 = test: IEDB peptide-MHC binding, purified MHC/direct/fluorescence; filed as Kd, often an IC50 or EC50 that approximates it; ≥ and ≤ were set here for values at or beyond the usual limits of such assays
HLA-A*68:02 = test: as above; conditions: source organism: Zaire ebolavirus
HLA-A*02:11 = test: as above; conditions: source organism: Zaire ebolavirus
HLA-A*29:02 = test: as above; conditions: source organism: Zaire ebolavirus
HLA-A*03:01 = test: as above
HLA-A*32:15 = test: IEDB peptide-MHC binding, purified MHC/competitive/fluorescence; filed as Kd, often an IC50 or EC50 that approximates it; ≥ and ≤ were set here for values at or beyond the usual limits of such assays; conditions: source organism: Vaccinia virus WR
HLA-B*15:42 = test: as above; conditions: source organism: Vaccinia virus WR
HLA-B*15:09 = test: as above; conditions: source organism: Vaccinia virus WR
HLA-A*68:23 = test: as above; conditions: source organism: Vaccinia virus WR
HLA-B*45:06 = test: as above; conditions: source organism: Vaccinia virus WR
HLA-B*14:02 = test: IEDB peptide-MHC binding, purified MHC/competitive/fluorescence; ≥ and ≤ were set here for values at or beyond the usual limits of such assays; conditions: source organism: Horsepox virus
HLA-B*27:05 = test: IEDB peptide-MHC binding, purified MHC/direct/fluorescence; filed as Kd, often an IC50 or EC50 that approximates it; ≥ and ≤ were set here for values at or beyond the usual limits of such assays; conditions: source organism: Camelpox virus CMS
HLA-B*58:01 = test: as above; conditions: source organism: Camelpox virus CMS
HLA-B*15:17 = test: as above; conditions: source organism: Camelpox virus CMS
HLA-B*08:02 = test: as above; conditions: source organism: Variola virus
HLA-B*46:01 [8] = test: as above; conditions: source organism: Camelpox virus CMS
HLA-B*57:01 [9] = test: as above; conditions: source organism: Camelpox virus CMS
HLA-A*01:01 = test: as above; conditions: source organism: Camelpox virus CMS
HLA-A*11:01 = test: as above; conditions: source organism: Camelpox virus CMS
HLA-B*51:01 [10] = test: as above; conditions: source organism: Camelpox virus CMS
HLA-B*07:02 = test: as above; conditions: source organism: Camelpox virus CMS
HLA-B*08:01 = test: as above; conditions: source organism: Variola virus
HLA-B*40:01 = test: as above; conditions: source organism: Camelpox virus CMS
HLA-A*31:01 = test: as above; conditions: source organism: Camelpox virus CMS
HLA-B*18:01 [11] = test: as above; conditions: source organism: Camelpox virus CMS
HLA-B*15:01 [12] = test: as above; conditions: source organism: Camelpox virus CMS
HLA-A*26:01 [13] = test: as above; conditions: source organism: Variola virus
HLA-B*48:01 = test: as above; conditions: source organism: Camelpox virus CMS
HLA-A*69:01 [14] = test: as above; conditions: source organism: Camelpox virus CMS
HLA-C*05:01 = test: as above; conditions: source organism: Vaccinia virus WR
[15] = source organism: Zaire ebolavirus
[16] = source organism: Camelpox virus CMS

Question: Which Kd (HLA-B*46:01 [1]) does the source give for SLTDRELLL here?
Answer: ≥ 20 µM

Question: What about the Kd (HLA-B*57:01 [2]) of the same sequence?
Answer: ≥ 20 µM

Question: And the Kd (HLA-B*27:03)?
Answer: ≥ 20 µM

Question: And the Kd (HLA-B*51:01 [3])?
Answer: ≥ 20 µM

Question: And the Kd (HLA-A*25:01)?
Answer: ≥ 20 µM

Question: What about the Kd (HLA-B*18:01 [4]) of the same sequence?
Answer: ≥ 20 µM

Question: And the Kd (HLA-B*15:01 [5])?
Answer: ≥ 20 µM

Question: What about the Kd (HLA-A*26:01 [6]) of the same sequence?
Answer: ≥ 20 µM

Question: What about the Kd (HLA-A*69:01 [7]) of the same sequence?
Answer: ≥ 20 µM

Question: What about the Kd (HLA-A*80:01) of the same sequence?
Answer: ≥ 20 µM

Question: And the Kd (HLA-B*39:01; [15])?
Answer: ≥ 20 µM

Question: And the Kd (HLA-A*02:01; source organism: Sudan ebolavirus - Uganda (2000))?
Answer: 0.0013 µM

Question: What about the Kd (HLA-A*68:02) of the same sequence?
Answer: ≥ 20 µM

Question: And the Kd (HLA-A*02:11)?
Answer: ≥ 20 µM

Question: What about the Kd (HLA-A*29:02) of the same sequence?
Answer: ≥ 20 µM

Question: And the Kd (HLA-A*03:01; [15])?
Answer: ≥ 20 µM

Question: What does the source list for MPAYIRNTL?
Answer: Kd (HLA-A*32:15): 0.0636 µM; Kd (HLA-B*15:42): ≥ 5 µM; Kd (HLA-B*15:09): ≥ 20 µM; Kd (HLA-A*68:23): 0.0009 µM; Kd (HLA-B*45:06): ≥ 5 µM; Kd (HLA-B*39:01; source organism: Vaccinia virus WR): 0.0364 µM; IC50 (HLA-B*14:02): 0.453 µM; Kd (HLA-B*27:05): ≥ 20 µM; Kd (HLA-B*58:01): ≥ 20 µM; Kd (HLA-B*15:17): ≥ 20 µM; Kd (HLA-B*08:02): 1.37 µM; Kd (HLA-B*46:01 [8]): ≥ 20 µM; Kd (HLA-B*57:01 [9]): ≥ 20 µM; Kd (HLA-A*01:01): ≥ 20 µM; Kd (HLA-A*11:01): ≥ 20 µM; Kd (HLA-B*51:01 [10]): 0.676 µM; Kd (HLA-A*02:01; [16]): ≥ 20 µM; Kd (HLA-B*07:02): 0.0066 µM; Kd (HLA-B*08:01): 0.008 µM; Kd (HLA-B*40:01): ≥ 20 µM; Kd (HLA-A*31:01): ≥ 20 µM; Kd (HLA-B*18:01 [11]): 2.82 µM; Kd (HLA-B*15:01 [12]): ≥ 20 µM; Kd (HLA-A*26:01 [13]): 6.95 µM; Kd (HLA-B*48:01): 1.52 µM; Kd (HLA-A*03:01; [16]): ≥ 20 µM; Kd (HLA-A*69:01 [14]): ≤ 0.001 µM; Kd (HLA-C*05:01): ≥ 20 µM
